Substitutions are numbered along the chain they refer to.
B1: anti-CD38 antibody 025 (antibody, human IgG1, V domains shown)
VH: QVQLVQSGAEVKKPGSSVKVSCKAFGGTFSSYAISWVRQAPGQGLEWMGRIIRFLGKANHAQKFQGRVTLTADKSTNTAYMELSSLRSEDTAVYYCAGEPGDRDPDAVDIWGQGTMVTVSS
VL: DIQMTQSPSSLSASVGDRVTITCRASQGIRSWLAWYQQKPEKAPKSLIYAASSLQSGVPSRFSGSGSGTDFTLTISSLQPEDFATYYCQQYNSYPLTFGGGTKVEIK
B2: anti-CD38 antibody 049 (antibody, human IgG1, V domains shown)
VH: B1 VH with K12M, F25S, S30R, R53V, A58T, H60Y, N77T, A97T, D102A, V108F
VL: B1 VL with S93N
B3: anti-CD38 antibody 056 (antibody, human IgG1, V domains shown)
VH: QVQLVQSGAEVKKPGSSVKVSCKPSGGTFRSYAISWVRQAPGQGLEWMGRIIVFLGKVNYAQRFQGRVTLTADKSTTTAYMELSSLRSEDTAVYYCTGEPGARDPDAFDIWGQGTMVTVSS
VL: B1 VL with S93N
B4: anti-CD38 antibody 028 (antibody, human IgG1, V domains shown)
VH: B1 VH with K57I, H60Y, T71I, D102E
VL: B1 VL
B5: anti-CD38 antibody 026 (antibody, human IgG1, V domains shown)
VH: B1 VH with A58T
VL: B1 VL
notes: also called -057

How the values were obtained:
Human recombinant CD38 = Human recombinant CD38 (human, UniProt P28907 43-300, limits assumed); assay: cell-based or functional assay
[1] = target: T1, HA-CD38 (N-terminal HA tag, extracellular domain of human CD38), wild type (human, UniProt P28907 45-300); assay: ELISA, HA-CD38 captured by anti-HA antibody
T1 construct: Used as culture supernatant of HEK-293F cells, captured by anti-HA antibody; also called wild type (WT) CD38; pEE13.4HACD38

[2] = target: T2, human CD38 on CD38-transfected CHO cells (CHO-CD38 cells) (human, UniProt P28907 1-300); assay: flow cytometry on CHO-CD38 cells, anti-human IgG-FITC
T2 construct: The construct used to transfect the CHO cells is not described; also called CHO cells transfected with CD38; cellular expressed CD38

CD38 on Daudi-luc cells = target: T3, CD38 on Daudi-luc cells (UniProt P28907 1-300); assay: flow cytometry on Daudi-luc cells, anti-human IgG-FITC
T3 construct: whole, on cells; also called Daudi cells

| Molecule | pmol cADPR/min (reverse cyclase reaction) (pmol cADPR/min) (Human recombinant CD38) | binding result [1] | binding result [2] | binding result (CD38 on Daudi-luc cells) | IC50 of inhibition of NAADP production (base-exchange activity, HPLC) (Human recombinant CD38) |
| --- | --- | --- | --- | --- | --- |
| HuMab-KLH (antibody) | 4.3 |  |  |  |  |
| B1 |  | binds | binds | binds |  |
| B2 |  | binds | binds | binds |  |
| B3 |  |  | binds | binds |  |
| B4 |  |  |  |  | 0.14 µg/mL |
| B5 |  | binds | binds | binds |  |

Source: patent US20130209355A1 (Genmab, published 2013)
